Data published in publication PMC5768801, “The PII signaling protein from red algae represents an evolutionary link between cyanobacterial and Chloroplastida PII proteins” (Scientific Reports, 2018).

Substrate: CC(=O)N[C@@H](CCC(=O)O)C(=O)O
Test: purified protein, by the assay type
Settings: pH 7.5

B1: ScNAGK (Synechocystis sp. PCC 6803 substr. Kazusa) (protein)
chain: MSSTQDYIGEEAATRVKILSEALPYIQHFAGRTVVVKYGGAAMKDSNLKDKVIRDIVFMASVGIRPVVVHGGGPEINTWLDKVGIEPQFKDGLRVTDAATMDIVEMVLVGRVNKELVNLINQAGGKAVGLCGKDGQLMTARTMTNKDVGFVGEVSSVDARVVETLVKSGYIPVISSVAADEFGQAHNINADTCAGELAAALGAEKLILLTDTRGILRDYKDPSTLIHKLDIQQARELIGSGIVAGGMIPKVTCCVRSLAQGVRAAHILDGRLPHALLLEVFTDLGIGSMIVASGYDL
  Km: 16.23 mM
